Measured values from the supplement of paper PMC10065799, “High-throughput profiling of sequence recognition by tyrosine kinases and SH2 domains using bacterial peptide display” (eLife, 2023).

Assays:
[1] = test system: AncSZ; test: phosphorylation enrichment, bacterial display (enrichment ratio); higher = better substrate or ligand; peptides without Tyr show the background
[2] = biological target: EPHB1 (UniProt P54762); test: as above
[3] = biological target: EPHB2 (UniProt P29323); test: as above
EPHB2, sequence (P29323 whole entry, looked up): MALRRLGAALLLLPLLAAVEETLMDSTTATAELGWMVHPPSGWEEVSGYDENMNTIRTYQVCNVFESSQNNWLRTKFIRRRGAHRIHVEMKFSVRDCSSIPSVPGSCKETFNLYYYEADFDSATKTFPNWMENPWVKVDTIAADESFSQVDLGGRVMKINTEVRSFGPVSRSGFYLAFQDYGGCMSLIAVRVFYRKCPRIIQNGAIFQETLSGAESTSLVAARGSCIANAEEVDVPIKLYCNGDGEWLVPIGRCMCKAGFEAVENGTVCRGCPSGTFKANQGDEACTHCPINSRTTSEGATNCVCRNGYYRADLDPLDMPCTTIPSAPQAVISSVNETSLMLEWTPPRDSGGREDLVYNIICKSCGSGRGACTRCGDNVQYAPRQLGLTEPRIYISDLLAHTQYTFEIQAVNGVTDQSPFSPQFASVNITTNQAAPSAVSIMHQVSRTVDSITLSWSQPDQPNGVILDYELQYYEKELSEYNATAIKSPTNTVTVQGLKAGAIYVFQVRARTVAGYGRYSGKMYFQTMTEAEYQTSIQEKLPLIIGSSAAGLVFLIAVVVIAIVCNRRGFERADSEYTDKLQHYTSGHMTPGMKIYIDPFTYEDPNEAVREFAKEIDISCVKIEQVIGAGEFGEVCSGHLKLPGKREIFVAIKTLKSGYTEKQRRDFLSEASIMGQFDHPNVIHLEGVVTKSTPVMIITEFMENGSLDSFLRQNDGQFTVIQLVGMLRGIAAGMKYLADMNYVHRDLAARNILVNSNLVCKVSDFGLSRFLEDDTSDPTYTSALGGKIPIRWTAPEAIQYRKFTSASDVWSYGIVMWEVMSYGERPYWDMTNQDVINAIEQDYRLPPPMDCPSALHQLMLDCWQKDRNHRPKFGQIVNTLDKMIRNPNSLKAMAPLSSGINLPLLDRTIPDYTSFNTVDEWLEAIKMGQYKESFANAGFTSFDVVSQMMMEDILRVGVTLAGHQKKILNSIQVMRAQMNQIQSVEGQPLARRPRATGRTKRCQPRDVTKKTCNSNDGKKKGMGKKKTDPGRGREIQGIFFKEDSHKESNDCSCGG

[4] = biological target: FGFR1 (UniProt P11362); test: as above
[5] = biological target: FGFR3 (UniProt P22607); test: as above
[6] = test system: Fer (mouse); test: as above
[7] = biological target: Fes (UniProt P07332); test: as above
Fes, sequence (P07332 whole entry, looked up): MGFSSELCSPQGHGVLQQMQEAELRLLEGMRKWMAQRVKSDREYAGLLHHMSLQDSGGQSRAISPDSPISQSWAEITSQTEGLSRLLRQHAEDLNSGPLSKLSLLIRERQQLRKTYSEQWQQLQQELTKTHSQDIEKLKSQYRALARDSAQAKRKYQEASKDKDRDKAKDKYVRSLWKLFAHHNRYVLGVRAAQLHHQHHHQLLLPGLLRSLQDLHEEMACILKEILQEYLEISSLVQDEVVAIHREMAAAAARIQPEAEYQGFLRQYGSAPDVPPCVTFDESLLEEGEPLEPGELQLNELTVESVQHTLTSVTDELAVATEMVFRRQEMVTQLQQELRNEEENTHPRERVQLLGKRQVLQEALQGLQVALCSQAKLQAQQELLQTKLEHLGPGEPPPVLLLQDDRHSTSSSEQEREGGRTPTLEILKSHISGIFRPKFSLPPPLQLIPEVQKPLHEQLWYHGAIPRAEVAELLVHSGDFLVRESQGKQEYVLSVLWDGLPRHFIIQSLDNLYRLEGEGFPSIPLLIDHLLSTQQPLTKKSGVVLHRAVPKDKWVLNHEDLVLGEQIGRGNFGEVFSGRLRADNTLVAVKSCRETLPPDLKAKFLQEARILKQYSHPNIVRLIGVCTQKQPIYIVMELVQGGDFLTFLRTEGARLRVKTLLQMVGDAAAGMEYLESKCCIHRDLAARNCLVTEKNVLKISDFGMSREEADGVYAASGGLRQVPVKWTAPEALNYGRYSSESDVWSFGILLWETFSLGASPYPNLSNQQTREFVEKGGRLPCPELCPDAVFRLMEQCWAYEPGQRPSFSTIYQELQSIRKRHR

[8] = biological target: Fyn (UniProt P06241); test: as above
[9] = biological target: Hck (UniProt P08631); test: as above
[10] = biological target: Jak2 (UniProt O60674); test: as above
Jak2, sequence (O60674 whole entry, looked up): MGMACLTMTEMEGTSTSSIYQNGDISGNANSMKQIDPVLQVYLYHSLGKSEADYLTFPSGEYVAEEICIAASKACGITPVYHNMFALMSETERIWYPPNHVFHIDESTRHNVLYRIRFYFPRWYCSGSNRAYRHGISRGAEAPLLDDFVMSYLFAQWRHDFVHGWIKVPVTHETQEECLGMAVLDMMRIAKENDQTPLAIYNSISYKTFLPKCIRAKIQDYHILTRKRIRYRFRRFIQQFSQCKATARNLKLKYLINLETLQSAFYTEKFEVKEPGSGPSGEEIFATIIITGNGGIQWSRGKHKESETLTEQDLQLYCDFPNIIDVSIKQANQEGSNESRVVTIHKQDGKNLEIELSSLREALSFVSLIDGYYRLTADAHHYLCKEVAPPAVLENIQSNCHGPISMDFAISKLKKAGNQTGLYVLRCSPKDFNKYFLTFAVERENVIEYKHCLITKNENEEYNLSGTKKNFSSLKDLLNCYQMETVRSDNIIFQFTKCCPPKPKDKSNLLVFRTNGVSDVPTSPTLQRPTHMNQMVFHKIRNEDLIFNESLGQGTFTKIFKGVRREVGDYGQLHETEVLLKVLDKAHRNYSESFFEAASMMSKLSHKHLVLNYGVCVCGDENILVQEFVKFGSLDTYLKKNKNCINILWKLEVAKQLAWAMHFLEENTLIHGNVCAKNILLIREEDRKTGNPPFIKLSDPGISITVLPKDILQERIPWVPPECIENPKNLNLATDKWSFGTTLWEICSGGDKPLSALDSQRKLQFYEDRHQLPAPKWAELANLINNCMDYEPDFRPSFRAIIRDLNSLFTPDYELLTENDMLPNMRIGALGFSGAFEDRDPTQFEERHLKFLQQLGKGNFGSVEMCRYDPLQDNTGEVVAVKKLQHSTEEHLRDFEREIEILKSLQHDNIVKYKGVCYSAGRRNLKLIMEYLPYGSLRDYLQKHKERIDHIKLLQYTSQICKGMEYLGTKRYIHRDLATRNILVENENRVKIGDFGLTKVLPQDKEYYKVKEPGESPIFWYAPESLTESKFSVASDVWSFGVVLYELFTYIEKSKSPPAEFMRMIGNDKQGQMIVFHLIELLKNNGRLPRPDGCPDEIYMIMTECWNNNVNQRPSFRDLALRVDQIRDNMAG

[11] = biological target: MERTK (UniProt Q12866); test: as above
MERTK, sequence (Q12866 whole entry, looked up): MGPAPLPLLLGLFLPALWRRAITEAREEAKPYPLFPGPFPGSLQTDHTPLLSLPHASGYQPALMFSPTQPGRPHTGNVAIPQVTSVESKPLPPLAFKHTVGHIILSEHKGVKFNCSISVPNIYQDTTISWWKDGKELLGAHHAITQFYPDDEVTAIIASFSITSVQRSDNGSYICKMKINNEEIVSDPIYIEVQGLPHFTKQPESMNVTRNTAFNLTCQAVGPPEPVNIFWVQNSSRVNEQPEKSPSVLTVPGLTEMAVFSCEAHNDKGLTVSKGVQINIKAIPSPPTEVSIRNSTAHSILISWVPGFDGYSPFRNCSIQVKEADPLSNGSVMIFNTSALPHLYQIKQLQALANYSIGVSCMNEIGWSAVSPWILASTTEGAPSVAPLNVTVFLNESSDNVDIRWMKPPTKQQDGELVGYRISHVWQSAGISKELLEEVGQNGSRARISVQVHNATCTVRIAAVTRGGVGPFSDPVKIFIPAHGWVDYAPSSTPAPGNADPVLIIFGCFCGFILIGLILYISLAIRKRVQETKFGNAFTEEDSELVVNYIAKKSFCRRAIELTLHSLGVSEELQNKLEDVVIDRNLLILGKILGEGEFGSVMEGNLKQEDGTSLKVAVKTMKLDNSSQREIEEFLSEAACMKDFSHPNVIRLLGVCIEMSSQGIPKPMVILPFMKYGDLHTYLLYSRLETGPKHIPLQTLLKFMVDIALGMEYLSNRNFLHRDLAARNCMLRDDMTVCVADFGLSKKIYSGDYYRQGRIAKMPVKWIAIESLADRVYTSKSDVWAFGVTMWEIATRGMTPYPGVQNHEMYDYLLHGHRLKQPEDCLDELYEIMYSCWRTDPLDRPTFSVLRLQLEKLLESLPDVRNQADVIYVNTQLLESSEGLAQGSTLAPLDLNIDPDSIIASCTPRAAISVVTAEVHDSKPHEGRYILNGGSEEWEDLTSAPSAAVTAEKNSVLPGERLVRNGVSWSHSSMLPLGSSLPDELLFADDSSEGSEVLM

[12] = test system: c-Abl (mouse); test: as above
[13] = test system: c-Src; test: as above
[14] = biological target: Grb2 SH2 (UniProt P62993); test: SH2 binding enrichment of the phosphorylated peptide, bacterial display (enrichment ratio); higher = better substrate or ligand; peptides without Tyr show the background
[15] = biological target: SHP2-C SH2; test: as above
[16] = biological target: c-Src SH2; test: as above
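Wherever SH2 binding enrichment of the phosphorylated peptide, bacterial display is given: peptide library displayed on the E. coli surface as eCPX fusions, selected cells deep-sequenced, score is each peptide's frequency after selection divided by its frequency in the input.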
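Wherever phosphorylation enrichment, bacterial display is given: 11-residue human phosphosite peptides and single-mutation variants displayed on the E. coli surface, counted by deep sequencing, each peptide's frequency after selection divided by its frequency in the unselected input library; frequency after pTyr selection over input frequency; kinase dosed for 20-30% of maximal phosphorylation in three min.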

EPHB1, sequence (P54762 whole entry, looked up): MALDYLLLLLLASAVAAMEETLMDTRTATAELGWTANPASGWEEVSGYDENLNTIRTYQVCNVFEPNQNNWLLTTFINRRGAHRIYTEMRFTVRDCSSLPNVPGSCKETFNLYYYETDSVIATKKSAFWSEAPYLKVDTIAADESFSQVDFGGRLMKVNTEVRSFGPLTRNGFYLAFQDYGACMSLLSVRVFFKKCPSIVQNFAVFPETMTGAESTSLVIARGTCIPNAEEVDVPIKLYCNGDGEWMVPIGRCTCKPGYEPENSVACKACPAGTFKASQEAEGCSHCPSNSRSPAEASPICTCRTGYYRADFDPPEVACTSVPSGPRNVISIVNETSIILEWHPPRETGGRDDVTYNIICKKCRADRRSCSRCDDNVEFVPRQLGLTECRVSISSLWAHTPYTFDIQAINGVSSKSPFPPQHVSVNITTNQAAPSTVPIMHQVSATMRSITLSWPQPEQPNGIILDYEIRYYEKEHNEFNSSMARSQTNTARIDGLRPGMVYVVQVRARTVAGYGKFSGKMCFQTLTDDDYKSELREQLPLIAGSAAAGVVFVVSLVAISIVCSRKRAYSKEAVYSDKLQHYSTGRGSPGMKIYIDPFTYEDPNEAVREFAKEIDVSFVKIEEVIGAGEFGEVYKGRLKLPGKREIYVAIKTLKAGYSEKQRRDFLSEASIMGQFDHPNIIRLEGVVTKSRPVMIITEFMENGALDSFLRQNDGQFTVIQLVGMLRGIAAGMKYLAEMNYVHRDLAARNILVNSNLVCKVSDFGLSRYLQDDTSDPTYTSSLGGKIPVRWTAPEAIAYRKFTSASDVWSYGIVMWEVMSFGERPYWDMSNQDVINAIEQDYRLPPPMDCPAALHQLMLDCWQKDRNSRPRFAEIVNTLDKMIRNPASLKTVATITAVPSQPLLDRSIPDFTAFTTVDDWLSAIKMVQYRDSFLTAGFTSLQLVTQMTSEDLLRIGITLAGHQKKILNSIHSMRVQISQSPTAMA

Sequence | SH2 binding enrichment [14] | SH2 binding enrichment [15] | SH2 binding enrichment [16] | phosphorylation enrichment [1] | phosphorylation enrichment [2] | phosphorylation enrichment [3] | phosphorylation enrichment [4] | phosphorylation enrichment [5] | phosphorylation enrichment [6] | phosphorylation enrichment [7] | phosphorylation enrichment [8] | phosphorylation enrichment [9] | phosphorylation enrichment [10] | phosphorylation enrichment [11] | phosphorylation enrichment [12] | phosphorylation enrichment [13]
KTVQDYLEKFF [MMP8_Y36_YF] | 0.953 | 0.719 | 0.64 | 1.14 | 0.504 | 0.602 | 0.643 | 0.692 | 0.485 | 1.28 | 0.519 | 0.502 | 0.986 | 0.514 | 0.874 | 0.446
EIVYVYVKKRS [DNAI2_Y7] | 0.687 | 0.805 | 0.483 | 1.29 | 0.555 | 0.57 | 0.52 | 0.675 | 0.465 | 1.1 | 0.354 | 0.538 | 1.01 | 0.377 | 0.64 | 0.399
SSYSRYIMMPN [LEF1_Y114_G113R] | 0.665 | 1.56 | 1.32 | 0.654 | 1.9 | 1.84 | 1.79 | 1.3 | 0.552 | 0.637 | 0.542 | 0.488 | 2.35 | 3.9 | 0.405 | 0.518
QRIYQYIRSRF [DYRK1B_Y273_Q275R] | 0.844 | 0.428 | 0.369 | 0.887 | 0.9 | 0.601 | 0.677 | 0.818 | 0.734 | 1.17 | 0.809 | 1.05 | 0.817 | 1.01 | 1.27 | 1.16
AMGAVYQAAAL [HYOU1_Y421] | 0.79 | 0.503 | 1.08 | 0.686 | 0.534 | 0.512 | 0.58 | 0.612 | 1.63 | 0.615 | 1.91 | 3.19 | 0.566 | 0.431 | 0.98 | 2.81

The next lines start with results.

SH2 binding enrichment [14] | SH2 binding enrichment [15] | SH2 binding enrichment [16] | Sequence | phosphorylation enrichment [1] | phosphorylation enrichment [2] | phosphorylation enrichment [3] | phosphorylation enrichment [4] | phosphorylation enrichment [5] | phosphorylation enrichment [6] | phosphorylation enrichment [7] | phosphorylation enrichment [8] | phosphorylation enrichment [9] | phosphorylation enrichment [10] | phosphorylation enrichment [11] | phosphorylation enrichment [12] | phosphorylation enrichment [13]
0.966 | 0.612 | 16.9 | EKSREYDRLYE [PIK3R1_Y463] | 1.32 | 0.663 | 0.68 | 0.61 | 0.706 | 0.711 | 1.09 | 0.708 | 0.944 | 0.828 | 0.597 | 0.938 | 0.587
1.22 | 0.893 | 1.02 | LNPLVYTLRNA [OR4C12_Y285_V283L] | 1.05 | 0.712 | 1.28 | 1.01 | 1.04 | 0.76 | 1.51 | 2.22 | 1.81 | 1.1 | 1.21 | 1.19 | 3.54
0.509 | 0.247 | 1.46 | KDQGTYEDFVE [MYL6_Y86_YF] | 1.31 | 0.569 | 0.59 | 0.906 | 1.35 | 0.911 | 2.32 | 0.616 | 0.966 | 1.94 | 1.12 | 1.97 | 1.31
